According to US20140323392A1:

Assays:
[1] = target: HIV-1 JRFL envelope glycoprotein gp41 (N-trimer of the prehairpin intermediate) (HIV-1 strain JRFL); experiment: cell-based or functional assay
[2] = target: HIV-1 HXB2 envelope glycoprotein gp41 (N-trimer of the prehairpin intermediate) (HIV-1 strain HXB2) (UniProt P04578); experiment: cell-based or functional assay

Row | Substance | IC50, JRFL pseudovirion entry [1] [nM] | IC50, HXB2 pseudovirion entry [2] [nM]
1 | C34-PEG11-Chol (from UniProt P04578 628-661) (peptide) | 0.024 | 0.021
2 | C34-PEG2-Chol (from UniProt P04578 628-661) (peptide) | 0.05 | 0.044
3 | C34-PEG80-Chol (from UniProt P04578 628-661) (peptide) | 0.1 | 0.022
4 | C34 (from UniProt P04578 628-661) (peptide) | 13.4 | 1.4
